Reference: article PMC11611905, “Recruitment of autophagy initiator TAX1BP1 advances aggrephagy from cargo collection to sequestration” (The EMBO Journal, 2024)

Experiments:
Settings in all cases: both partners purified
[1] = molecular target: T1, 10x-His-GFP-TAX1BP1 (UniProt Q86VP1 1-789); test: peptide or protein array; entire NBR1 sequence spotted as 12 aa peptides on a membrane; GFP-TAX1BP1 at 50 µg/ml in SEC buffer, 2 h at RT; detection by western blot
T1 construct: TAX1BP1, full-length (FL); also called GFP-TAX1BP1 FL; recombinant TAX1BP1; source: Sf9 insect cells (pLIB vector, baculovirus), purified; not shown: GFP, N-terminal, kept
T1 sequence (Q86VP1 whole entry): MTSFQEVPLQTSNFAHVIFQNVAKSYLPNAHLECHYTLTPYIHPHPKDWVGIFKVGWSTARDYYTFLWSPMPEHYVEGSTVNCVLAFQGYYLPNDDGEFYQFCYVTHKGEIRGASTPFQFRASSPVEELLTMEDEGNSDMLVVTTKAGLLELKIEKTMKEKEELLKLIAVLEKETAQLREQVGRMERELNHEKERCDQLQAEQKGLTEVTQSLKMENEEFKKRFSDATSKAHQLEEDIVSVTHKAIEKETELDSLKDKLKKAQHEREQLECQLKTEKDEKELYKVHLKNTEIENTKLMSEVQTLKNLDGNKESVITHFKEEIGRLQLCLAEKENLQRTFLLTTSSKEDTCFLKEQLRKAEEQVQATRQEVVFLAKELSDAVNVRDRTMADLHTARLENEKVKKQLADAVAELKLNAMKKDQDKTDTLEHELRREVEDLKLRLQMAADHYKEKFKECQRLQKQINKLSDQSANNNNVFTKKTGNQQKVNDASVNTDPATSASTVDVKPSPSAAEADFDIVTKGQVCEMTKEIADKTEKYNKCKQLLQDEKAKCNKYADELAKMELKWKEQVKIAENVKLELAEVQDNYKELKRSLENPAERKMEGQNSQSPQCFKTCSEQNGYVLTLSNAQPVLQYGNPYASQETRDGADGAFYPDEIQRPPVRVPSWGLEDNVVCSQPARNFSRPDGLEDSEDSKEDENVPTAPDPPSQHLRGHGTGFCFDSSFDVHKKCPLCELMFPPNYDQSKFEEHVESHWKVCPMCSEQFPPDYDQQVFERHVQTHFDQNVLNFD

[2] = molecular target: T2, GFP-NBR1 (purified) (UniProt Q14596 1-966); test: microscopy-based protein interaction assay; GST-TAX1BP1 (FL, N-domain, point mutants; 2.5 µM) as bait on GSH beads, 1 µM GFP-NBR1 as prey; SEC buffer (25 mM HEPES pH 7.5, 150 mM NaCl, 1 mM DTT); 15-30 min at RT; confocal imaging of the beads
T2 construct: NBR1; source: HEK293 (pCAGGSsH-C vector, VBCF ProTech facility), purified; not shown: GFP, N-terminal, kept
T2 sequence (looked up): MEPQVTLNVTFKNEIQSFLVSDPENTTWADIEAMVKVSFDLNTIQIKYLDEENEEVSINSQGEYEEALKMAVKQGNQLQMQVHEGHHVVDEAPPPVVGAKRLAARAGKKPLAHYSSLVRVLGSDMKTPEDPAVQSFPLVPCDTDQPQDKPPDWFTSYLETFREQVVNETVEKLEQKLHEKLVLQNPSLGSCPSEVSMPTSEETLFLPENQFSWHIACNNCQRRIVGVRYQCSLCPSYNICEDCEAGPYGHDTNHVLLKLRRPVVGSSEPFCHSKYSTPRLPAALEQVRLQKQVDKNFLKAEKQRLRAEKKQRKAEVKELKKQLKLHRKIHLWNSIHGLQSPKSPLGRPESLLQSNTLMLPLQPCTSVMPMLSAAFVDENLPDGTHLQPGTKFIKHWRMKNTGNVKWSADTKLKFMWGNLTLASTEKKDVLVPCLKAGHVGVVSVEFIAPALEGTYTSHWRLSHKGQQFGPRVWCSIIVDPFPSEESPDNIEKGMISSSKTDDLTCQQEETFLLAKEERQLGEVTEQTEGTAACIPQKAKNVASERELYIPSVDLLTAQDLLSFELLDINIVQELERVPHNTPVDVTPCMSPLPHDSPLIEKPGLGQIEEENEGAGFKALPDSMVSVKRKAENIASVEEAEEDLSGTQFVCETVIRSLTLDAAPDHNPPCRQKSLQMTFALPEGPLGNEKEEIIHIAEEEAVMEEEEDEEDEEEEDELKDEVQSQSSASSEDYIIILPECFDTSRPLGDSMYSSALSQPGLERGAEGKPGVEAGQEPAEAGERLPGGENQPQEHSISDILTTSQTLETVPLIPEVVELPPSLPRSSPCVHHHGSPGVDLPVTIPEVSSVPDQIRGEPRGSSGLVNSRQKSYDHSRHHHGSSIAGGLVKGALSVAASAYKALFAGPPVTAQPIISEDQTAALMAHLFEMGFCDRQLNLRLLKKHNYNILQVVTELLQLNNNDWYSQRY

[3] = molecular target: T3, 10x-His-mCherry-TAX1BP1 (UniProt Q86VP1 1-789); test: microscopy-based protein interaction assay; mCherry-TAX1BP1 on RFP-trap beads, GFP-tagged NBR1 fragment CC2-LIR1 as prey
T3 construct: TAX1BP1, full-length (FL); also called mCh-TAX1BP1; mCherry-TAX1BP1 FL; source: Sf9 insect cells (pLIB vector, baculovirus), purified; not shown: mCherry, N-terminal, kept
T3 sequence (Q86VP1 whole entry, the tested form may be a part): as the sequence (Q86VP1 whole entry) above

B1: NBR1 peptides of binding region 1 (aa347-aa365) (peptide, UniProt Q14596 347-365, looked up)
peptide: RPESLLQSNTLMLPLQPCT
notes: NBR1 aa347-365, covered by overlapping 12 aa spots of the peptide array; also called parts of the FW domain; source: synthetic peptides spotted on a membrane (Peptide Synthesis facility of the IMP)
[1]
  binding result: binds

B2: NBR1 peptides of binding region 2 (aa731-aa749) (peptide, UniProt Q14596 731-749, looked up)
peptide: DYIIILPECFDTSRPLGDS
notes: NBR1 aa731-749, covered by overlapping 12 aa spots of the peptide array; source: synthetic peptides spotted on a membrane (Peptide Synthesis facility of the IMP)
[1]
  binding result: binds

B3: GST-N-domain (aa420-506 of TAX1BP1) (domain or fragment, UniProt Q86VP1 420-506, looked up)
chain: DQDKTDTLEHELRREVEDLKLRLQMAADHYKEKFKECQRLQKQINKLSDQSANNNNVFTKKTGNQQKVNDASVNTDPATSASTVDVK
[2]
  binding result: binds

B4: GFP-CC2-LIR1 (NBR1 aa685-aa757) (domain or fragment, UniProt Q14596 685-757, looked up)
chain: LGNEKEEIIHIAEEEAVMEEEEDEEDEEEEDELKDEVQSQSSASSEDYIIILPECFDTSRPLGDSMYSSALSQ
notes: the methods name the purified protein GST-GFP-CC2-LIR1 and give two ways of elution (TEV cleavage or glutathione) without saying which was used; also called GST-GFP-CC2-LIR1; source: E. coli Rosetta pLysS, purified (GSH beads, SEC); not shown: GFP, N-terminal, kept
[3]
  binding result: binds
